Source: PMC11258689, “A Snake Venom Peptide and Its Derivatives Prevent Aβ42 Aggregation and Eliminate Toxic Aβ42 Aggregates In Vitro” (ACS Chemical Neuroscience, 2024)
No end group written: not given here.

Columns and labels:
Details in all cases: both partners purified
amyloid-β (1–42) [1] = biological target: T1, amyloid-β (1–42) (UniProt P05067 672-713); assay: SPR; Biacore T200; Aβ42 immobilised on a CM-5 chip by amine coupling (900 RU); peptides as analytes 50 to 0.02 μM; 10 mM HEPES + 50 mM NaCl + 0.05% Tween 20, 25 °C, 30 μL/min; multicycle; steady-state affinity model
T1 construct: also called Aβ42; Aβ (1–42); source: bought: Bachem (Bubendorf, Switzerland); suspended in HFIP, lyophilized

amyloid-β (1–42) [2] = biological target: T1, amyloid-β (1–42); assay: as above; remark: listed apart in the source
amyloid-β (1–42) [3] = biological target: T1, amyloid-β (1–42); assay: SPR; Biacore T200; CDP-1 immobilised by amine coupling (1916.5 RU); Aβ42 as analyte 1.85 to 0.02 μM; 10 mM HEPES + 50 mM NaCl + 0.05% Tween 20, 25 °C; multicycle; methods: 1:1 kinetic fit with global Rmax (the table's head says steady-state fitting)

B1: crotamine derivative peptide CDP-6 (peptide)
peptide: Ac-KMDSRWRWKCSKK
modifications: not fully specified (C-terminus); also: methylated at the C-terminus
notes: positions worked out from Lys27–Lys39; […]; L-amino acids; source: synthetic peptide (Genscript, purity >95%)
**Q.** How did the Kd (amyloid-β (1–42) [1]) turn out when B1 was run?
**A.** The Kd was 26.4 µM.

B2: crotamine derivative peptide CDP-2 (peptide)
peptide: Ac-KMDSRWRWKSSKK
modifications: not fully specified (C-terminus); also: methylated at the C-terminus
notes: […]; L-amino acids; source: synthetic peptide (Genscript, purity >95%)
**Q.** With B2 as the binder, how does the Kd (amyloid-β (1–42) [2]) read?
**A.** Its Kd is 3.25 µM.

B3: crotamine derivative peptide CDP-1 (peptide)
peptide: KMDCRWRWKCCKK
modifications: acetylated at the N-terminus; methylated at the C-terminus
notes: crotamine of Crotalus durissus terrificus venom, Lys27 to Lys39; […]; L-amino acids; For SPR this peptide was immobilised by amine coupling (1916.5 RU); also called crotamine (Lys27–Lys39); mother L-peptide CDP-1; source: synthetic peptide (Genscript, purity >95%)
**Q.** With B3 as the binder, how does the Kd (amyloid-β (1–42) [3]) read?
**A.** Its Kd is 0.41 µM.
